Experimental data taken from patent publication US20050064507A1, “Determining kinase specificity” (priority 2003, published 2005).

Assays:
Type in all cases: biochemical
PKC-delta = target: T1, PKC-delta (Homo sapiens, UniProt Q05655); assay: In vitro kinase assay: peptide phosphorylation by PKC-delta
T1 construct: purchased Calbiochem
Method in brief: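 Biotin-Lys-dansyl-Lys-Pro-Pro-Gly-linked proteomic peptides (12–21-residue core) phosphorylated by PKC-delta in HEPES/Triton/CaCl2/MgCl2 buffer with phosphatidyl serine and PMA, 100 μM [γ-32P]ATP, 30° C., ~10 min, stoichiometry ≤5%; streptavidin-plate capture. Signal normalized as % of best peptide substrate.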

PKC-zeta = target: T2, PKC-zeta (Homo sapiens, UniProt Q05513); assay: In vitro kinase assay: peptide phosphorylation by PKC-zeta; conditions: for PKC-zeta phosphorylation: normalized to best substrate
T2 construct: purchased Calbiochem
T2 sequence (Q05513 1-592): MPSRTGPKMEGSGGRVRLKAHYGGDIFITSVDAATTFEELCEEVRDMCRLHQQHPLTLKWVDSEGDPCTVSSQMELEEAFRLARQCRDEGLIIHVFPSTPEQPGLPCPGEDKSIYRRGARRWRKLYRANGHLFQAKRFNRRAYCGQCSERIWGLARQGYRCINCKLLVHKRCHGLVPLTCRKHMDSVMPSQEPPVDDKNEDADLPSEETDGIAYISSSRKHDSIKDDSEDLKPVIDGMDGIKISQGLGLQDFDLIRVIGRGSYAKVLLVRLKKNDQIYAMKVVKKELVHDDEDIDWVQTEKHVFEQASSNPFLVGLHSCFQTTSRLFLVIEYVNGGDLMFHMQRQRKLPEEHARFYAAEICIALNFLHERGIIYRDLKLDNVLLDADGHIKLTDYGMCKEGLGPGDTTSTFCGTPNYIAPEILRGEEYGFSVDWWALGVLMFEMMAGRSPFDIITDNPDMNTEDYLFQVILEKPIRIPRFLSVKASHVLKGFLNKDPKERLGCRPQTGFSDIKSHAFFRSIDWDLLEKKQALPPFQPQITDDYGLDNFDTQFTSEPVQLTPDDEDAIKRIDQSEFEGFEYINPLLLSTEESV

PKA = target: T3, PKA (Homo sapiens, UniProt P17612); assay: In vitro kinase assay: peptide phosphorylation by PKA; conditions: normalized to best substrate
T3 construct: purchased Calbiochem
Method: (§1) Catalytically active preparations of the kinases of interest were either purchased or prepared. Purchased and tested active kinase preparations including the following: PKC-alpha, PKC-delta, PKC-epsilon, PKC-zeta, PKC-mu, PKA, PKG from Calbiochem, ROK alpha/ROCK-II, active from Upstate Biotechnology, and AKT1 from Panvera.
(§2) The conditions of the kinase assay and the amount of active kinase used varied with the kinase and with the accuracy needed. For a typical experiment, 5-20 ng of kinase was used per well and each peptide pool was assayed in duplicate wells. Note that the absolute amount of kinase used was not usually a critical parameter, because the desired information related to specificity of the kinase not its absolute activity, and robustness of the assay depends on comparisons of the same amount of kinase on different peptides. The combination of kinase concentration and assay duration was modified to assure that the stoichiometry of peptide phosphorylation never exceeded 5%. The choice of kinase buffer depended on the kinase being analyzed. For studies of PKC, 100 mM HEPES, 0.05% Triton-X100, 1 mM CaCl2, 20 mM MgCl2, 0.2 mg/ml phosphatidyl serine (Avanti Polar Lipids), PMA 100 ng/ml was typically used. The lipid stock was prepared by transferring 3 mg phosphatidyl serine into iced mixture of 450 μl water plus 50 μl of 10% Triton-X100, sonicating 10 times on ice for 1 sec each.
(§3) The kinase reaction mixture was assembled by sequential addition to a tube held on ice of: 5 μl peptide (100 μM for final concentration of 10 μM), 15 μl of kinase (typically 5 ng/well, in appropriate kinase buffer), 30 μl of ATP (1 uCi/well of ^32P-gamma ATP in a stock of 167 μM cold ATP in the kinase buffer; for final concentration for 100 μM ATP). The mixture was rapidly warmed to desired reaction temperature (30° C. for PKC) and incubated for the desired duration (usually 10 minutes). The kinase assay was terminated by transfer to 4° C. water batch, and rapid addition of an equal volume (50 μl) of stop solution [0.1M ATP+0.1M EDTA in water, pH 8].
(§4) The peptides were then captured from the reaction mixture by transfer to a Reacti-Bind Streptavidin High Binding Capacity Coated Plates (HBC) (Pierce Biotechnology) as follows. The HBC plates were pre-rinsed three times with PBS/Tween PBS/Tween20 0.05% (PBS/Tween). Part of all of the reaction mixture was then transferred wells of a HBC plate pre-filled with 90 μl of phosphate-buffered saline (PBS); typically each aliquots of each phosphorylation reaction were transferred to duplicate HBC plates to assure accuracy by additional replication
(§5) For kinase assays done at the standard peptide concentration of 10 μM, the peptide concentration in the reaction mixture becomes 5 μM after addition of the stop solution; consequently 10 μl of the reaction (50 pMoles of peptide) was transferred to the HBC plate. More generally, the amount of reaction mixture transferred was estimated to be about 50 pMoles of peptide. […] The HBC plates were incubated for 0.5 to 1.5 hr at room temperature for complete binding of biotinylated peptides to plate-bound streptavidin. The HBC plates were then washed extensively with PBS/Tween. Five washes were done routinely and additional wash steps were added if the wash solution removed from the plate had measurable radioactivity as detected using a Geiger counter. This step is essential to obtaining a good the signal to noise ratio because the fraction of radioactivity incorporated in the peptides was a tiny fraction of the total in the reaction mixture. The wells were air-dried. A volume of 40-50 μl of microScint-20 (Packard Instruments) was added to each well. The plates were covered with stick-on film sheet. Radioactive emissions were measured in a TopCount NXT Microplate Scintillation and Luminescence Counter (Packard Instruments). Typically samples were counted for 5 minutes (or more) to improve the signal to noise ratio when counts were low. […]

AKT1 = target: T4, AKT1 (Homo sapiens, UniProt P31749); assay: In vitro kinase assay: peptide phosphorylation by AKT1; conditions: normalized to best substrate
T4 construct: purchased Panvera
T4 sequence (P31749 whole entry, species assumed): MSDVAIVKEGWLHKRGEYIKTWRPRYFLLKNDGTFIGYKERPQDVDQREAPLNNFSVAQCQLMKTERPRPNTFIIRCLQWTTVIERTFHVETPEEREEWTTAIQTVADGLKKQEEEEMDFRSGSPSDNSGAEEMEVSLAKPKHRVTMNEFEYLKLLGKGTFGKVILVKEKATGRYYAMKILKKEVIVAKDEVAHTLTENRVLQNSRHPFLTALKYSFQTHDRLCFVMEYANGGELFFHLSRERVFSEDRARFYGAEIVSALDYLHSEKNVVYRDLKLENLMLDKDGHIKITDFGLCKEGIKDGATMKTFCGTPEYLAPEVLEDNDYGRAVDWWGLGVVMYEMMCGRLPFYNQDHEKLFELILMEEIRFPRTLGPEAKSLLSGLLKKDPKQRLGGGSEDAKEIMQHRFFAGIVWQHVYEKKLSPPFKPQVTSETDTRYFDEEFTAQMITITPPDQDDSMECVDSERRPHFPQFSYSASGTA
Method: as §1, §2, §3, §4, §5

T1 sequence (Q05655 whole entry): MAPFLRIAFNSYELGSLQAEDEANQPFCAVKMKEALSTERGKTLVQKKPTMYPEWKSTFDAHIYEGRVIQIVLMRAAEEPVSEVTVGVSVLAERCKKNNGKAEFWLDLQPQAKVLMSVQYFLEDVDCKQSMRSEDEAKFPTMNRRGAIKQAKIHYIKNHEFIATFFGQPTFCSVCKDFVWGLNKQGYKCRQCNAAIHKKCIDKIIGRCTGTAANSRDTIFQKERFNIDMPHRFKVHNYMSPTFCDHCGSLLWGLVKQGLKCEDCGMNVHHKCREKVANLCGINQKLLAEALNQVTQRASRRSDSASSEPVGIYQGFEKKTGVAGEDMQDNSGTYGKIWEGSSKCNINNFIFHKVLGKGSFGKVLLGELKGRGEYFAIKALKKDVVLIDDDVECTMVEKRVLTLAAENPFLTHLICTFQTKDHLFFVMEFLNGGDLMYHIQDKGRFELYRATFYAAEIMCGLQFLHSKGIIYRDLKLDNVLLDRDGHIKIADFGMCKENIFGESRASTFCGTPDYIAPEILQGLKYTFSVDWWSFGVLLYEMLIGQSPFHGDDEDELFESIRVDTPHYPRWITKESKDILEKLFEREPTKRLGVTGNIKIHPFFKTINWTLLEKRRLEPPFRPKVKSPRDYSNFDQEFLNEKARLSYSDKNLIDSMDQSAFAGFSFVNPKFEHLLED

Substance | phosphorylation by PKC-delta (PKC-delta; peptide concentration 1 uM) | phosphorylation by PKC-delta (PKC-delta; peptide concentration 10 uM) | phosphorylation by PKC zeta (PKC-zeta; peptide concentration 1 uM) | phosphorylation by PKC zeta (PKC-zeta; peptide concentration 10 uM) | PKC-zeta phosphorylation (PKC-zeta) | PKA phosphorylation (PKA) | AKT1 phosphorylation (AKT1)
148 (RELEQLKAEYLERRASRRRA) [compound 148] | 27 | 14 | 20 | 20 |  |  | 
97 (KKRSSKKEASMKKVVRP) [compound 97] |  |  |  |  | 1% | 1% | 10%
151 (PQNSLKASNRKKKRTSFKRK) [compound 151] | 27 | 37 | 15 | 28 |  |  | 
153 (TYLLPDKSRQGKRKTSIKRD) [compound 153] | 32 | 26 | 6 | 13 |  |  | 
152 (DLIEGRKGAQIVKRASLKRG) [compound 152] | 35 | 18 | 4 | 9 |  |  | 
87 (RQGKRKTSIKRDTVNPL) [compound 87] |  |  |  |  | 3% | 64% | 7%
149 (RVVQSVKHTKRKSSTVMK) [compound 149] | 20 | 17 | 3 | 5 |  |  | 
150 (VDPFYEMLAARKKRISVKKK) [compound 150] | 34 | 20 | 3 | 6 |  |  | 
91 (VHYTSKDTLRKRHYWR) [compound 91] |  |  |  |  | 12% | 3% | 5%
88 (KKPFKLSGLSFKRNRKE) [compound 88] |  |  |  |  | 4% | 3% | 10%
81 (KRERKTSSKSSVRKRR) [compound 81] |  |  |  |  | 10% | 2% | 9%
98 (AGPLRKSSLKKGGRL) [compound 98] |  |  |  |  | 4% | 21% | 7%
